# Literature values, collected in paper PMC10586765.
# Target: UBL4A (Homo sapiens) (UniProt P11441)
# Test: surface plasmon resonance
# UniProt P11441, sequence (P11441 whole entry): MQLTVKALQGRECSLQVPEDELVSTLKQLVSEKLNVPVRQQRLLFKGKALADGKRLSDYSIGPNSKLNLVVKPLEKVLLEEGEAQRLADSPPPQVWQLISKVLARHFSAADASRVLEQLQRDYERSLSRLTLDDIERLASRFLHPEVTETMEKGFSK
substance,measurement,value
BAG6 (from UniProt P46379),Kd,2.2 nM
